Assay results: the DeepSol protein solubility set

Experiment: soluble on expression in E. coli; label from the status in PepcDB or PDB records

Sequence	soluble on expression in E. coli
MKIAIVGTGISGLTCGYYLHQQHDITLFEANDYIGGHTATVDVRVGIEDYAIDTGFIVYNDRTYPNFIKMMNEIGVEGIPTQMSFSVRNDGNGLEYNGHTLTTLFAQKRNWLNPKFYRFVLEILRFNKLAKASATEQISSSQSLGAFLDEHQFSDFFSDNYILPMGAAIWSSSLADMRAFPLMFFLRFFLNHGLLDVTNRPQWYVIKGGSRAYIPPLTQGFADKIRLNSPVEKVVRSEQGVAIYANGQCEWFDEVIFACHSDQALAMLSDASSCENDILSNMAYQANDVVLHTDTSVLPKRKSAWASWNYLLEGGEEEQQRLPSLTYNMNILQHIDSSHTFCVTLNRTEDIDENKILRQFTYHHPVFTTESIAAQQRKEEIQGAQHTWFCGAYWYNGFHEDGVRSALDVVKGIAAKHNEKNDTLYEQGAALEHHHHHH	soluble
MKIALIGASGYVGSALLKEALSRGHHVTALVSRPERIAAQANLAAAKVDVQDSAQLAEQLKGFDAVLSAFSGHAQAEQFDYFVKGIRSIIAAAKAAQAPRLLVVGGAGSLEVAPGVQLVDTPEFPEQWKASALGAREALNLLRAETELNWTLLSPSAMLQPGQRTGQFRLGKDQLLVDAEGNSHISVEDYAVAMIDELEKGLEHHHHHH	not soluble
MKIAVTKFLGTNCDLDVCHAVKLAGGEPELVFFTQENLDSYKGAVIPGGFSYGDYLRAGAISARTPIIKGLKKMVEEGKPVLGICNGAQIGLEAGFSKGTLTNNLNAKFICKWVYIRVENNKTPFTQYYKKGEVLKIPIAHAEGRFYADDETLDYMYKNNMIVFKYCDETGEVTEEANPNGSIDNIAGVCNENQNCVLLMPHPERASEKILGSDDGLKMFKGMIDYAKRI	soluble
MKIDISDILKHSGASLRLDFSESIKINDFIAEDFDFAKPVTFKGTLVNAGGIIKLDGELWADYRAKCSRCLKDIESKMHIDVKENFVEEGSNKTDEEYYTYHGKFLELEKVMIDNIILNLPAKQVCDEACKGYCPKCGADLNNDECKCVNEDIDPRLEVFKNFFTDN	soluble
MKIFKFTPENNLFYGYILEDMKTGFNILREIMVEGYRPSIARLYDAEDGTQHFTHFADGKCVLIFMAEGNPRIAKVTGEGIAEIVARYPQCQRVDSKLIETWFNNLNWGPDKVAAERVQILKTGNMGFTTEVSGCWSCIHEIYESVINRIRTEFPHADDITMLGGHSSHSYQNGTNMYFVYDYNVVDCKPEEEIDKYHNPLNKIICEETIRLGGSMVHHHGIGKHRVHWSKLEHGSAWALLEGLKKQFDPNGIMNTGTIYPIEK	soluble
MKIGFIGAGSMGGAMIKGLLKAEAVKKEHLYVKGGSSGTAEALQKEWGFQLVTDYALFQECKVIFIATGAKVVLPVLQELAPHFSNESLLISVATGHTIQEAQMALGNKEAKVVHAIPNTPVSVNQGVIGVALAPTIEGQTKDLAMELLATLGLVKEIREAQLETFGTVAGCSPAFVDIFMEALGDAAVLEGLPRDLSYEIVAQMIKGTATLALDTKKHPGALKDEVTSPGGSTIRGVVALEKNGFRYAVMDAVQQANHE	soluble
MKIIDEHTFEGKGYHPFLITDRWQVAYLNYAEAESLEQIEKLDIHHQTDEVFILLQGKAALIGASVTDQNITYDVVNMQPGIVYNIRREVWHKIAMQPGSQVLIIENNDTHLNDFEFFELTESQKSQLRECVTKIVSLTEN	not soluble
MKIITAINEDEWASITHIATTVHLKKDQLIIRKGDPGNKEVFLVNGIVRGFITDENGNEKSTSFFEEGEFMSTQALRTKKGISLYNYQALCRTKLLIFDSKQLKDLLSATKKLSEIGKAIKERELTRLMNRDDCLMQVKALDKYQKFITYYPALERQISQRYIASYLGITPVSLSRLKKSMIVRTDNN	not soluble
MKILILGGRFGGLQTAYDLRRYLKNKADIKIIEKNRYIYFRPALPHVGIGLERAEDLRIDLAQVLPDRGIGYIQGTVTKIDPERSLVEYSREGSGGYKEKYDFLVIALGAHLASELIAGFDKYGSSVCEADLAENMWKKLRDFKGGNITLGSAKFIQDTKNRPTNTPDRYAPIADSACEGPVFEMSIMLYDYFKARNMLDKVKMTVYSPGEYLSDLSRTSRSTVAAMYKGMNIELVDNFVVKEVTEKEVISEDGRRLPSDISFILPPYTGQKLVKDAGLGDDVGFVLTGTDMKSVKYDNVYAVGDVNALIVPKMAFLAVKTARIVAANIANRLGMSIPVEVYDPKIVCVADSPYGNYAVAVTDSTFYGGNVSEAIPSPANHLKKTLFTRYFLWSKGDLAMDKYLTSWLEHHHHHH	not soluble
MKILKKIFQVIVKIINHCVPVDSRSLYFIPHPNCRTDKYDIINYSSDNVLVLLNYLLKKDSAEYYKIYVEIYDSSRISEYQEYIYGINPNIRCTFLCACVGRFFFNKVSFKDMLYAFFCFCRASKCFTATFYYDFSFKKRSQQIICLGYYTPFKDDYHMGDHSYDKFRNTTCNSFDYSIATSCLSARIISIDCGISYDKFKVLGFPRNDLLISKNNCNVIKREISKFAGYDVTKYIVYTPTFRDYETVTEGNLRSILGYVDCDLLKLSKILLKFNAALILKLHPLQNKTVLKKDLPKGILVFEQTYKYGLYDLLSFSDGMITDYTSTYFDFLLVNKPVIFNFYDIEEYRRVRGFSFEPIEFFCAGDIVYNYNELIDAVMGLLAGKDIHAEHRRHISLLMNQFQDDNSTKRICDIFLNEILEHHHHHH	not soluble
MKINSPLEAYKYLPQTNCGECGQPTCMAFASTLIDRSGKTTDCPPLIKEKKFAKKLAELDRLLAPEIRQVTIGVGERAANIGGDDVLYRHKLTFFNKTKMFFDVADNMDEAAIVERVKKISDYKKFYVGRNLLLDGVAIRAASNDPAKFATAVKKVIENTELPVILCSFNPAVLKAGLEVAKGKNPLLYAANKDNWKEVGELALEYNVPVVVSAFNDLDGLKTLAKTFAEAGIKDIVLDPGTYPTGKGLKDTFTNFLKIRRAGIMGDTEIAYPIMAMPLTAWMAGIADPVSASYWETVLASIFTIRYGDIMLLHSMEPYATMPEVHLAETIYTDPRSPVAVDSKMYKVGNPTADSPVLFTTNFALTYYTVESDLASNGIDCWLLAVNTDGIGVEAAAAGGQLTADKVKDAFEKSGFDLKSDVTHNSVVIPGLAARLQGDIEDKLNVKVMVGPMDSGRLPGWMEKNWPPKK	not soluble
MKIRSPIVSVLGHVDHGKTTLLDHIRGSAVASREAGGITQHIGATEIPMDVIEGICGDFLKKFSIRETLPGLFFIDTPGHEAFTTLRKRGGALADLAILIVDINEGFKPQTQEALNILRMYRTPFVVAANKIDRIHGWRVHEGRPFMETFSKQDIQVQQKLDTKVYELVGKLHEEGFESERFDRVTDFASQVSIIPISAITGEGIPELLTMLMGLAQQYLREQLKIEEDSPARGTILEVKEETGLGMTIDAVIYDGILRKDDTIAMMTSKDVISTRIRSLLKPRPLEEMRESRKKFQKVDEVVAAAGIKIVAPGIDDVMAGSPLRVVTDPEKVREEILSEIEDIKIDTDEAGVVVKADTLGSLEAVVKILRDMYVPIKVADIGDVSRRDVVNAGIALQEDRVYGAIIAFNVKVIPSAAQELKNSDIKLFQGNVIYRLMEEYEEWVRGIEEEKKKKWMEAIIKPASIRLIPKLVFRQSKPAIGGVEVLTGVIRQGYPLMNDDGETVGTVESMQDKGENLKSASRGQKVAMAIKDAVYGKTIHEGDTLYVDIPENHYHILKEQLSGDLTDEELDLMDKIAEIKRKKNPDWGMKAPF	soluble
MKIYLVGGAVRDALLGLPVKDKDWVVVGATPQEMLDAGYQQVGRDFPVFLHPQTHEEYALARTERKSGSGYTGFTCYAAPDVTLEADLQRRDLTINALARDDAGQIIDPYHGRRDLEARLLRHVSPAFGEDPLRVLRVARFAARYAHLSFRIADETLALMREMTAAGELEHLTPERVWKETENALTTRNPQVYFQVLRDCGALRVLFPEIDALFGVPAPAKWHPEIDTGVHTLMTLSMAAMLSPQLDVRFATLCHDLGKGLTPKNLWPRHHGHGPAGVKLVEQLCQRLRVPNDLRDLAKLVAEYHDLIHTFPILQPKTIVKLFDAIDAWRKPQRVEQIALTSEADVRGRTGFEASDYPQGRWLREAWQVAQAVPTKEVVEAGFKGIEIREELTKRRIAAVANWKEKRCPNPAS	not soluble
